The results in this text go back to the DeepSol protein solubility set.

A short description of the data set: soluble on expression in E. coli; label from the status in PepcDB or PDB records.
As to “MGSDKIHHHHHHMEESKELFKDIEKHLLNDVRPSEYLNEQLNKGNLNKYPFTMLSDLVHTEQNKEHHPEGNVWNHTLLVVDKAAENREKSSDKRAFMWGSLLHDIGKAKTTKVRKGKITSYNHDKVGETMSREFLQCFSEDEDFIYKVIKLVRWHMQTLFVVKNMSFADSKNMLKETSLDEIALLSLCDRLGRQPMSNGKIQEEKENVRTFVRKVKELNKV”, the “soluble on expression in E. coli” value is recorded as “not soluble”.
To “MDAEGNLFMSWRDGGTFGIARINEQQNIVTPLIEADAANRILYANGLTVDRATGMLTAAHESVKEVTFTFDPREAWYPRQRNIKYSQSDLNSIVDADRYKNFVTFCPYDGYLYTRYRDGKIAKIDPNTFEGHIIHQGPSGSQYGQAINPAKPWLLYITLHSNAPTAYRQGISVLDLRDPDGTGGFKRLNAPGGSAFRDGPIEDALFNYPKDIKFDNDGNMFVADYGNHCIRMISADNIVTTVAGQPGVAGYKDGGPVESLFKNPWGVAVNEQGDIYIADWGNARIRKLVIELEHHHHHH” belongs “not soluble”; to “MANKHHVYWYRHHIVNIIMIVDSKTSDWILIDTGLFYSEAFILKKIRRVLGELIPPKAIILTHGHFDHVGALRPLLQRFPNVPVYAHELELPFLTGQRHYVKPDPSVPGGLMAKLAWLYPYHAYDFSRIICPLPDDGTLPFFTDWRWIHTPGHTEGHVSLFRPSDRFLIAGDAFTTVKQESLLSVLAQKKEIHGPPAYFTPDWELAKTSVETLQKLEPAFAVTGHGQMMEGSSLHSGLKRLISQFEQVAVPDLEHHHHHH”, “soluble”.
The value for “MGSDKIHHHHHHMPEKLDTVLGYLKEFPDYYKYVTKKTYTVNEKIIFEDEKAKSIFFIVEGYAAVELEDNLRKTNYISIFVLPYNVLGIDAFSSYPKKKHSITVMSEHLMLYKIDADFLLNILSIKPDVNDFLLTSIADVFARHYALLGMIAKTPKERIYMALENLAVEMGTEDEERNEIVLPNFINQSVLARYCRTTQPNISNLLTELVEEEFLVNKKSPYRIDKDSLDI” was “not soluble”.
The value for “MLSTVFRRTMATGRHFIAVCQMTSDNDLEKNFQAAKNMIERAGEKKCEMVFLPECFDFIGLNKNEQIDLAMATDCEYMEKYRELARKHNIWLSLGGLHHKDPSDAAHPWNTHLIIDSDGVTRAEYNKLHLFDLEIPGKVRLMESEFSKAGTEMIPPVDTPIGRLGLSICYDVRFPELSLWNRKRGAQLLSFPSAFTLNTGLAHWETLLRARAIENQCYVVAAAQTGAHNPKRQSYGHSMVVDPWGAVVAQCSERVDMCFAEIDLSYVDTLREMQPVFSHRRSDLYTLHINEKSSETGGLKFARFNIPADHIFYSTPHSFVFVNLKPVTDGHVLVSPKRVVPRLTDLTDAETADLFIVAKKVQAMLEKHHNVTSTTICVQDGKDAGQTVPHVHIHILPRRAGDFGDNEIYQKLASHDKEPERKPRSNEQMAEEAVVYRNLM” was “soluble”; that for “MRIEGELVKAKFVKRLNRFVALVEVDGVQEFAHVPNTGRLKELLVDGAAVMVRKYDKTDRKTRFGLILVRKNGIWVSIDSANAPNRIMYEALVQGKFDKFRDYSEIRREVTVLNSRFDFGLFSEGKEYYIEVKGVTLVENRQGFFPDAPTQRGTRHLEELTKIRQNGKEAGVAFIVQREDADVVRPNDRTDKNFANALRIAAEAGVDLMAYVCKVDAEQRRMDIVREIPVIIK” was “soluble”; that for “MYDTVRDRLIHLHHCRGAGWKTIHSLLKVDPTLTAPFSLPPNDLRPLVPLSDAQWTAFFHDLHSIDVQRVIKTYKGRCIRVITVFDSDYPPLLKYIYAPPWVLYAKGDSALLQEWKLISIVGTRRPTKEGIEALNKLVPPLVAAGFTIVSGLAFGIDVCAHQLAVQHGGSTIAVIAGGLDHIYPKEHRPFATLLMNEQLVIAEHPPATRPQAWQFPARNRIISGLSLGTLVVQAKRKSGSLITAAYALEQGREVFAVPGPIGLAESAGPNTLIQHGAKLVQEAADILDEFPYV” was “not soluble”.
For the sequence “MGSDKIHHHHHHMIRAGIIGATGYTGLELVRLLKNHPEAKITYLSSRTYAGKKLEEIFPSTLENSILSEFDPEKVSKNCDVLFTALPAGASYDLVRELKGVKIIDLGADFRFDDPGVYREWYGKELSGYENIKRVYGLPELHREEIKNAQVVGNPGCYPTSVILALAPALKHNLVDPETILVDAKSGVSGAGRKEKVDYLFSEVNESLRPYNVAKHRHVPEMEQELGKISGKKVNVVFTPHLVPMTRGILSTIYVKTDKSLEEIHEAYLEFYKNEPFVHVLPMGIYPSTKWCYGSNHVFIGMQMEERTNTLILMSAIDNLVKGASGQAVQNMNIMFGLDETKGLEFTPIYP”, the “soluble on expression in E. coli” value was “soluble”.
The value for “MPKVGMQPIRRQQLIQATLTAVDQVGMGDASIALIARLAGVSNGIISHYFQDKNGLIAATMRHLMNALIQNVRERRQALTEDSPRAHLQVIIEGNFDASQVSGPAMKTWLAFWATSMHHPSLHRLQRINDHRLYSNLCCQFRRTLPLEQARNAARGLAALIDGLWLRGALSGDAFDTEQAQRIAYEYMDFQLAKSAS” was “not soluble”; that for “MPLQVDDVAERAFVRIVGALRSVRVTSERSQNSLSTFLPVRGRAISEWETGAIQPKLSHLIQWSWELDRRLVIVGRDGELRNDSLRQRPGESWEVFERRRLATPLRNRRQAMGMAQGELADLVGVTRDSIQRWELVRVPPRPIALIVWAQKLG” was “not soluble”; that for “MSLGTFRFGTSATPEGKTLLVDSKGLILDGKHIIPVMGEIHYSRVPESEWRREIRKMKAGGINIISTYIFWIHHEPEEGKWNWSGNHNLRRFVRICAEENVMLVLRLGPFCHGEVYQGGIPSWVHEKAGQNPKYKIRARTPGFLEDCTELYNTIFAQVNGLLWKDGGPVVGVQIENESRGPWDYLEALKNIAVKAGFDVPFYTRTGWPALRGKEVFGQLLPLYGDYADGFWDRKLEDMPGSYADAFIMRDKRMSSAIATETFSKEELSEDSPSLSSKLSYPYFTCELGGGMMPAYHRRININGKELKPLVICKLGSGSNLPGYYMYHGGTNPYNPLHTMGETQSSPGTNHNDLPHMTYDFQAPLGEVGQVFETPFHEGRFIHQMLTDWGSELLQMNVDSLSRHYARRGAFEFYNDYVRIKNESGTSHVTFKDYRTEGATIDWTTVEPFCKVDGLIYFIEIRGKKPQISVDGKVYTCKLNKQQKAGKLNVCVLSYEKAKTAYKIDGKLLYAKNGGILYKSDSCIVEEVWTKSPVIAATVTEVKKADAPRVVPMGRQAVAAQPVEEDFAKAAVYTINYDTSGINNYDNLFLRINYRGDVARVYADGRLVADNFWNGKEMWVRMADLVGKKVELKILPLRKDAPVYFQKEQKAMIEATKGDYMLGLDSVEVIERHTLEFNDTEGHHHHHH” was “soluble”.
On to “GMILKTNLFGHTYQFKSITDVLAKANEEKSGDRLAGVAAESAEERVAAKVVLSKMTLGDLRNNPVVPYETDEVTRIIQDQVNDRIHDSIKNWTVEELREWILDHKTTDADIKRVARGLTSEIIAAVTKLMSNLDLIYGAKKIRVIAHANTTIGLPGTFSARLQPNHPTDDPDGILASLMEGLTYGIGDAVIGLNPVDDSTDSVVRLLNKFEEFRSKWDVPTQTCVLAHVKTQMEAMRRGAPTGLVFQSIAGSEKGNTAFGFDGATIEEARQLALQSGAATGPNVMYFETGQGSELSSDAHFGVDQVTMEARCYGFAKKFDPFLVNTVVGFIGPEYLYDSKQVIRAGLEDHFMGKLTGISMGCDVCYTNHMKADQNDVENLSVLLTAAGCNFIMGIPHGDDVMLNYQTTGYHETATLRELFGLKPIKEFDQWMEKMGFSENGKLTSRAGDASIFLK”, for which the “soluble on expression in E. coli” value was “soluble”.
The value for “MPFPVTTQGSQQTQPPQKHYGITSPISLAAPKETDCLLTQKLVETLKPFGVFEEEEELQRRILILGKLNNLVKEWIREISESKNLPQSVIENVGGKIFTFGSYRLGVHTKGADIDALCVAPRHVDRSDFFTSFYDKLKLQEEVKDLRAVEEAFVPVIKLCFDGIEIDILFARLALQTIPEDLDLRDDSLLKNLDIRCIRSLNGCRVTDEILHLVPNIDNFRLTLRAIKLWAKRHNIYSNILGFLGGVSWAMLVARTCQLYPNAIASTLVHKFFLVFSKWEWPNPVLLKQPEECNLNLPVWDPRVNPSDRYHLMPIITPAYPQQNSTYNVSVSTRMVMVEEFKQGLAITDEILLSKAEWSKLFEAPNFFQKYKHYIVLLASAPTEKQRLEWVGLVESKIRILVGSLEKNEFITLAHVNPQSFPAPKENPDKEEFRTMWVIGLVFKKTENSENLSVDLTYDIQSFTDTVYRQAINSKMFEVDMKIAAMHVKRKQLHQLLPSHVLQKKKKHSTEGV” was “soluble”.
